Here are results for seven molecules from patent US20120244162A1 (MICROMET, published 2012).

The target in test [1] is T1, 1-27 CD3-Fc (N-terminal amino acids 1-27 of the mature human CD3 epsilon chain fused to the hinge and Fc … (human)).
T1 construct: also called 1-27 CD3ε-Fc; human CD3 epsilon (aa 1-27)-Fc fusion protein
As to the kind of experiment: SPR (Biacore 2000), 1-27 CD3-Fc coupled to CM5 chip, analyte 5 µg/ml. On the technique in general: Surface plasmon resonance follows binding to a sensor surface in real time, without labels.

Test [2] concerns the target T1, 1-27 CD3-Fc (N-terminal amino acids …). As to the kind of experiment: ELISA, periplasmic scFv on captured 1-27 CD3-Fc.
The target in test [3] is T2, swine 1-27 CD3ε-EpCAM (Sus scrofa CD3 epsilon 1-27, cynomolgus …).
T2 construct: Negative control construct on 293-HEK cells; also called 1-27 CD3-EpCAM comprising the swine 27 mer
T2 chain: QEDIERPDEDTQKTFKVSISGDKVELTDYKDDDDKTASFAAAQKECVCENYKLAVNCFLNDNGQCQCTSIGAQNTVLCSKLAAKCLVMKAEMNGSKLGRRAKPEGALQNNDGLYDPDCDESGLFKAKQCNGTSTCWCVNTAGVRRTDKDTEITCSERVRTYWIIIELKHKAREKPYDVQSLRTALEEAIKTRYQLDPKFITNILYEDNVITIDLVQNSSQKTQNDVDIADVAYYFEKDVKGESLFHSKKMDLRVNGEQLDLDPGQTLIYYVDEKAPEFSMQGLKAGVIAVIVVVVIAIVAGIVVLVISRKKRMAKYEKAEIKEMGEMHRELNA
As to the kind of experiment: FACS on transfected 293-HEK cells.

Test [4] addresses T3, human 1-27 CD3ε-EpCAM (human CD3 epsilon 1-27, cynomolgus EpCAM).
T3 construct: Transmembrane fusion: CD3 epsilon 1-27, Flag tag, mature cynomolgus EpCAM; on transiently transfected 293-HEK cells; also called 1-27 CD3-EpCAM comprising the human 27 mer
T3 chain: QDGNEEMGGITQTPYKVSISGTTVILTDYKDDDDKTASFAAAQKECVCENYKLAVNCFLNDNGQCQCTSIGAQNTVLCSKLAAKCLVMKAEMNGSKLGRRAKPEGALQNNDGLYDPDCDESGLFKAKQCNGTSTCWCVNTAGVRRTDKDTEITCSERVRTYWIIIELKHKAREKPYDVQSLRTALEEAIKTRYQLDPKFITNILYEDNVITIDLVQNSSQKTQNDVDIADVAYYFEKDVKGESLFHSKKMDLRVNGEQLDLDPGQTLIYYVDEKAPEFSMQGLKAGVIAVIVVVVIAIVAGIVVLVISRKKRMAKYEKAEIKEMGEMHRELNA
As to the kind of experiment: FACS on transfected 293-HEK cells, periplasmic scFv.

The target in test [5] is T4, marmoset 1-27 CD3ε-EpCAM (Callithrix jacchus CD3 epsilon 1-27, …).
T4 construct: On transiently transfected 293-HEK cells; also called 1-27 CD3-EpCAM comprising the marmoset 27 mer
T4 chain: T3 chain with G9D, I10T, T13N, I25T
Described as above.

In test [6] the target is T5, tamarin 1-27 CD3ε-EpCAM (Saguinus oedipus CD3 epsilon 1-27, …).
T5 construct: On transiently transfected 293-HEK cells; also called 1-27 CD3-EpCAM comprising the tamarin 27 mer
T5 chain: T3 chain with G9D, I10T, T13N, I25T
The test is described as above.

For test [7], the target named is T6, squirrel monkey 1-27 CD3ε-EpCAM (Saimiri sciureus CD3 epsilon 1-27, …).
T6 construct: also called 1-27 CD3-EpCAM comprising the squirrel monkey 27 mer
T6 chain: T3 chain with M7I, G9D, I10T, T13N, I25T
Described as above.

The target in test [8] is T7, human CD3 epsilon alanine mutant, position 2 (D2A) (human, UniProt P07766 22-207).
T7 construct: On transfected EL4 cells
As to the kind of experiment: alanine scanning, FACS on EL4 transfectants.

Test [9] has as its target T8, human CD3 epsilon alanine mutant, position 3 (G3A) (human, UniProt P07766 22-207).
T8 construct: On transfected EL4 cells
As to the kind of experiment: alanine scanning, FACS on EL4 transfectants.

Test [10] has as its target T9, human CD3 epsilon alanine mutant, position 5 (E5A) (human, UniProt P07766 22-207).
T9 construct: On transfected EL4 cells
As to the kind of experiment: alanine scanning, FACS on EL4 transfectants.

Test [11] deals with T10, human CD3 epsilon alanine mutant, position 1 (Q1A) (human, UniProt P07766 23-207).
T10 construct: On transfected EL4 cells; positions count on the mature chain
As to the kind of experiment: alanine scanning, FACS on EL4 transfectants.

Test [12] addresses T11, macaque CD3 on the macaque T cell line 4119LnPx (macaque, UniProt Q95LI5 22-198).
T11 construct: whole, on cells; Native CD3 complex on 4119LnPx cells; also called cynomolgus CD3
As to the kind of experiment: FACS, 4119LnPx.

Substitutions are numbered along the chain they refer to. Names and notes keep the numbering of the source.

T9 sequence (P07766 other isoform, or with tags, fused parts or gaps limits assumed, stated change not applied): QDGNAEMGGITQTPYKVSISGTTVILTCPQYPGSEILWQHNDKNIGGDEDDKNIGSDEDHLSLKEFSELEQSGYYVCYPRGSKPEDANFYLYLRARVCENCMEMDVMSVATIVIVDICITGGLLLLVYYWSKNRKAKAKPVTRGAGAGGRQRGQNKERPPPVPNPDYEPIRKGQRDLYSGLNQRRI
T7 sequence (P07766 other isoform, or with tags, fused parts or gaps limits assumed, stated change not applied): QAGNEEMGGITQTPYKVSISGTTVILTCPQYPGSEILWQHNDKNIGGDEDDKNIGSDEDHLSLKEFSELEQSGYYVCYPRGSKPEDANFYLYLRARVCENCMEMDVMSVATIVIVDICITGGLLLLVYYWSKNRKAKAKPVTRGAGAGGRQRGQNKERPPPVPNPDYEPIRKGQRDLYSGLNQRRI
T10 sequence (P07766 other isoform, or with tags, fused parts or gaps, stated change not applied): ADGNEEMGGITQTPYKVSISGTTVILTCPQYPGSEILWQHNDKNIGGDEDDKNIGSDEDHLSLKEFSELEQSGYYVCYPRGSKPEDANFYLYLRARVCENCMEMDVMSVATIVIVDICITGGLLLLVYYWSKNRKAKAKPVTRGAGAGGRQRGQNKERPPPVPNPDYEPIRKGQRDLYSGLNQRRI
T8 sequence (P07766 other isoform, or with tags, fused parts or gaps limits assumed, stated change not applied): as the sequence (P07766 other isoform, or with tags, fused parts or gaps, stated change not applied) above, with A1Q, G3A counted along it
T11 sequence (Q95LI5 22-198): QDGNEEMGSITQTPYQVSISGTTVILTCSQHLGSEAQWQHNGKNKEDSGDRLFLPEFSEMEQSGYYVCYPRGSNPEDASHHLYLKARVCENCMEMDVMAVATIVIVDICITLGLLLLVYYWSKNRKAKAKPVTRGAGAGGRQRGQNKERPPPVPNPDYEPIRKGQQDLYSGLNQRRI

B1: EGFR-21-63 LH × A2J HLP (bispecific antibody)
chain: DIVLTQSPASLPVSLGQRATISCRASQSVSSSTYSYIHWYQQKPGQPPKLLITYASNLESGVPARFSGSGSGTDFTLDIHPVEEDDSSTYYCQHSWEIPFTFGSGTKLEIKGGGGSGGGGSGGGGSQVQLQQSGPDLVKPGASVKMSCKASGHTFTDCVIIWVKQRAGQGLEWIGQIYPGTGRSYYNEIFKGKATLTADKSSNTVHIQLSSLTSEDSAVYFCALSTLIHGTWFSYWGQGTLVTVSSGGGGSEVQLLESGGGLVQPGGSLKLSCAASGFTFNVYAMNWVRQAPGKGLEWVARIRSKYNNYATYYADSVKKRFTISRDDSKNTAYLQMNNLKTEDTAVYYCVRHGNFGNSYLSWWAYWGQGTLVTVSSGGGGSGGGGSGGGGSELVVTQEPSLTVSPGGTVTLTCRSSTGAVTSGYYPNWVQQKPGQAPRGLIGATDMRPSGTPARFSGSLLGGKAALTLSGVQPEDEAEYYCALWYSNRWVFGGGTKLTVLHHHHHH
notes: Bispecific single chain antibody; also called EGFR LH × A2J HLP
Broadly, the Kd is the free concentration of one partner at which half of the binding sites on the other are occupied at equilibrium, for simple one-to-one binding. In test [1], B1 came in with a Kd of 249 nM.

B2: EGFR-21-63 LH × E2M HLP (bispecific antibody)
chain: B1 chain with V282G, K319E, G353R, W363F
notes: Bispecific single chain antibody; also called EGFR LH × E2M HLP
In [1], B2 came in with a Kd of 2460 nM.

B3: A2J HLP single-chain antibody (scFv)
scFv: EVQLLESGGGLVQPGGSLKLSCAASGFTFNVYAMNWVRQAPGKGLEWVARIRSKYNNYATYYADSVKKRFTISRDDSKNTAYLQMNNLKTEDTAVYYCVRHGNFGNSYLSWWAYWGQGTLVTVSSGGGGSGGGGSGGGGSELVVTQEPSLTVSPGGTVTLTCRSSTGAVTSGYYPNWVQQKPGQAPRGLIGATDMRPSGTPARFSGSLLGGKAALTLSGVQPEDEAEYYCALWYSNRWVFGGGTKLTVLTGDYKDDDDKHHHHHH
notes: Crude periplasmic preparation; also called VH-VL-P of A2J
For the molecule B3, the binding result in [2] is “binds”.

B4: E2M HLP single-chain antibody (scFv)
scFv: B3 scFv with V31G, K68E, G102R, W112F
notes: Crude periplasmic preparation; also called VH-VL-P of E2M
Take B4: the binding result is “no binding” in [3]; “binds” in test [2]; “binds” in test [4]; “binds” in test [5]; “binds” in test [6]; “binds” in [7].

B5: A2J HLP chimeric IgG antibody (murine IgG1 and human lambda constant regions) (antibody, V domains shown)
VH: EVQLLESGGGLVQPGGSLKLSCAASGFTFNVYAMNWVRQAPGKGLEWVARIRSKYNNYATYYADSVKKRFTISRDDSKNTAYLQMNNLKTEDTAVYYCVRHGNFGNSYLSWWAYWGQGTLVTVSS
VL: ELVVTQEPSLTVSPGGTVTLTCRSSTGAVTSGYYPNWVQQKPGQAPRGLIGATDMRPSGTPARFSGSLLGGKAALTLSGVQPEDEAEYYCALWYSNRWVFGGGTKLTVLG
notes: also called IgG antibody A2J HLP
Take B5: the binding result in test [8], in [9], in [10] and in test [11] was “no binding” each time.

B6: E2M HLP chimeric IgG antibody (murine IgG1 and human lambda constant regions) (antibody, V domains shown)
VH: B5 VH with V31G, K68E, G102R, W112F
VL: B5 VL
notes: also called IgG antibody E2M HLP
On to B6, for which the binding result in test [8], in [9], in [10] and in [11] was “no binding” in each case.

B7: MCSP-G4 HLP × E2M HLP (bispecific antibody)
chain: QVQLVQSGAEVKRPGASMKVSCKASGYTFTNYYIHWVRQAPGQGLEWMGWINPNSGATNYAQKFQGRVTMTRDTSTSTVYMELSSLRSEDTAVYYCAKSWVSWFASWGQGTLVTVSSGGGGSGGGGSGGGGSELVMTQSPDSLAVSLGERATINCKSSQSVLNSSNNRNYLAWYQQKPGQPPKLLIYWASTRESGVPDRFSGSGSGTDFTLTISGLQAEDVAVYYCQQHYSTPFTFGPGTKVDIKSGGGGSEVQLLESGGGLVQPGGSLKLSCAASGFTFNGYAMNWVRQAPGKGLEWVARIRSKYNNYATYYADSVKERFTISRDDSKNTAYLQMNNLKTEDTAVYYCVRHRNFGNSYLSWFAYWGQGTLVTVSSGGGGSGGGGSGGGGSELVVTQEPSLTVSPGGTVTLTCRSSTGAVTSGYYPNWVQQKPGQAPRGLIGATDMRPSGTPARFSGSLLGGKAALTLSGVQPEDEAEYYCALWYSNRWVFGGGTKLTVLHHHHHH
Turning to B7, the binding result in test [12] is given as “binds”.
